From article PMC10294441, “Characterization of 17β-estradiol-degrading enzyme from Microbacterium sp. MZT7 and its function on E2 biodegradation in wastewater” (Microbial Cell Factories, 2023)

Substrate: C[C@]12CC[C@@H]3c4ccc(O)cc4CC[C@H]3[C@@H]1CC[C@@H]2O
Experiment: HPLC of estrone (E1) formation
Type: biochemical, Microbacterium resistens
Settings: NAD+ (500 μM in the general assay), pH 7, MSM, 30 °C in the general assay, E2 0.018–0.40 mM

B1: 17β-HSD-0095 (Microbacterium resistens) (protein)
chain: MPTDPALPDPEPTKGNTMNRYEGRRALVTGGGSGIGQATVLRMLAEGGRVVAADVSPAGLADTVEKAGNAAARLTTVEVNVADEASVKAAVATAVDALGGLDVLVNAAGILRSSHTAETTLEQFETILRVNLVGTFLMIRESIPALLDGQDAAVVNFSSTSAMFAHPYMAAYAASKGGVQSMTHALAAEYAKQGIRFTAVQPGSISSGMTDGSGRSGQSAGPGLPEDADMSLFLKLAPAIGQGFAGPEAVAGVVAMLASADGAFITGTEVRIDGGTHF
notes: about 35 kDa on SDS-PAGE
Km: 480 µM
